Laboratory results reported in publication PMC5499601 (Nucleic Acids Research, 2017).
Numbering of substitutions follows the chain as printed.

How the values were obtained:
Experiment in all cases: EMSA
BsSpo0J N112S = target: T1, BsSpo0J N112S (UniProt P26497 1-282, N112S)
T1 sequence: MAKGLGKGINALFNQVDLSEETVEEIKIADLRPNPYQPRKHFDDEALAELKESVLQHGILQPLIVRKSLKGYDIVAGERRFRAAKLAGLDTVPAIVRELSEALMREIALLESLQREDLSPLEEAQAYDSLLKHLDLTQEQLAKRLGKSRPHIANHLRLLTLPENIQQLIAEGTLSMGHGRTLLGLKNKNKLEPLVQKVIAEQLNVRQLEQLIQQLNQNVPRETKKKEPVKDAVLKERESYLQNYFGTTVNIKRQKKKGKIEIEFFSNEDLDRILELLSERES

BsSpo0J R82A = target: T2, BsSpo0J R82A (UniProt P26497 1-282, R82A)
T2 sequence: T1 sequence with R82A, S112N

BsSpo0J Q140R = target: T3, BsSpo0J Q140R (UniProt P26497 1-282, Q140R)
T3 sequence: T1 sequence with S112N, Q140R

BsSpo0J M104A = target: T4, BsSpo0J M104A (UniProt P26497 1-282, M104A)
T4 sequence: T1 sequence with M104A, S112N

BsSpo0J H57E = target: T5, BsSpo0J H57E (UniProt P26497 1-282, H57E)
T5 sequence: T1 sequence with H57E, S112N

BsSpo0J R105E = target: T6, BsSpo0J R105E (UniProt P26497 1-282, R105E)
T6 sequence: T1 sequence with R105E, S112N

BsSpo0J Q61A = target: T7, BsSpo0J Q61A (UniProt P26497 1-282, Q61A)
T7 sequence: T1 sequence with Q61A, S112N

BsSpo0J Q140A = target: T8, BsSpo0J Q140A (UniProt P26497 1-282, Q140A)
T8 sequence: T1 sequence with S112N, Q140A

BsSpo0J R80A = target: T9, BsSpo0J R80A (UniProt P26497 1-282, R80A)
T9 sequence: T1 sequence with R80A, S112N

Measured: binding result

B1: 24-bp parS (dsDNA)
DNA 1: AGAATGTTCCACGTGAAACAAAGA
DNA 2: TCTTTGTTTCACGTGGAACATTCT
binds: all assays above
